T1: EsCas13d, nuclease-dead (Eubacterium siraeum, UniProt B0MS50, R295A;H300A;R849A;H854A)
T1 sequence: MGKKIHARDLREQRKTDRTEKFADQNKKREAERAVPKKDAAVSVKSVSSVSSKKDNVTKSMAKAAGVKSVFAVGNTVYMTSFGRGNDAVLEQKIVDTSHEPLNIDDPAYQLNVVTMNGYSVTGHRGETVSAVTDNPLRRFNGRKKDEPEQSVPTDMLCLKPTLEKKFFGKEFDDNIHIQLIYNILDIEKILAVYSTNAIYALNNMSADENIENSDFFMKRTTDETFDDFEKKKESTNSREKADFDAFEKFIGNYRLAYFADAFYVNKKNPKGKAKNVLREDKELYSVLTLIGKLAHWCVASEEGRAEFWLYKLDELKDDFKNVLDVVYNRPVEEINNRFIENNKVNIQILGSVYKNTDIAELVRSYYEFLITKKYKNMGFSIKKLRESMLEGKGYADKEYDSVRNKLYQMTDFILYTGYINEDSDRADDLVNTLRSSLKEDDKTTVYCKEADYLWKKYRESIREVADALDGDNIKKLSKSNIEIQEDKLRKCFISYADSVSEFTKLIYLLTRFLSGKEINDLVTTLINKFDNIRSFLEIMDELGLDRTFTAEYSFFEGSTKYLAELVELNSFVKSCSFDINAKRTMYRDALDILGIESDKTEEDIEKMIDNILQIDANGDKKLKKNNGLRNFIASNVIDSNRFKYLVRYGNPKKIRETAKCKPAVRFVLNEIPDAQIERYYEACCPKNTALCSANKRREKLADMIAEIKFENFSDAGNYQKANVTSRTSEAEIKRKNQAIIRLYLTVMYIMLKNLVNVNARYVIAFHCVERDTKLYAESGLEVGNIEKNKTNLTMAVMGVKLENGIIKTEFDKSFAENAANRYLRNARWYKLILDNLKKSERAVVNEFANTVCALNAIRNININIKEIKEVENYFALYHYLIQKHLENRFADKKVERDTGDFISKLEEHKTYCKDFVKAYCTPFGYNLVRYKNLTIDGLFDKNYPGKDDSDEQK

B1: target 1 insC 3' of 19,insG 3' of 14 (mixed)
RNA 1: CACCCGUGCAAAAAUGCAGGGGUCUAAAACUGAGCGGAUAACCUCUCUAUGG
RNA 2: GGGAAUGGAUCCACAUCUACGAAUUCGUACCAUCAGAGAGGGUUAUCCGCUCACCGAGAUCGGAAGAGCACACGU
B2: target 1 insC 3' of 15,insG 3' of 4 (mixed)
RNA 1: CACCCGUGCAAAAAUGCAGGGGUCUAAAACUGAGCGGAUAACCUCUCUAUGG
RNA 2: GGGAAUGGAUCCACAUCUACGAAUUCGUACCAUAGAGCAGGUUAUCCGCGUCACCGAGAUCGGAAGAGCACACGU
B3: target 1 insU 3' of 21,insG 3' of 4 (mixed)
RNA 1: CACCCGUGCAAAAAUGCAGGGGUCUAAAACUGAGCGGAUAACCUCUCUAUGG
RNA 2: GGGAAUGGAUCCACAUCUACGAAUUCGUACCUAUAGAGAGGUUAUCCGCGUCACCGAGAUCGGAAGAGCACACGU
B4: target 1 insU 3' of 18,insC 3' of 18 (mixed)
RNA 1: CACCCGUGCAAAAAUGCAGGGGUCUAAAACUGAGCGGAUAACCUCUCUAUGG
RNA 2: GGGAAUGGAUCCACAUCUACGAAUUCGUACCAUAUCGAGAGGUUAUCCGCUCACCGAGAUCGGAAGAGCACACGU
B5: target 1 C2G,A14G (mixed)
RNA 1: CACCCGUGCAAAAAUGCAGGGGUCUAAAACUGAGCGGAUAACCUCUCUAUGG
RNA 2: GGGAAUGGAUCCACAUCUACGAAUUCGUACCAUAGAGGGGUUAUCCGCUGACCGAGAUCGGAAGAGCACACGU
B6: target 1 A16C,G17U (mixed)
RNA 1: CACCCGUGCAAAAAUGCAGGGGUCUAAAACUGAGCGGAUAACCUCUCUAUGG
RNA 2: GGGAAUGGAUCCACAUCUACGAAUUCGUACCAUAUCGAGGUUAUCCGCUCACCGAGAUCGGAAGAGCACACGU
B7: target 1 C6A,A16G (mixed)
RNA 1: CACCCGUGCAAAAAUGCAGGGGUCUAAAACUGAGCGGAUAACCUCUCUAUGG
RNA 2: GGGAAUGGAUCCACAUCUACGAAUUCGUACCAUAGGGAGGUUAUCAGCUCACCGAGAUCGGAAGAGCACACGU
B8: target 1 C6A,U19A (mixed)
RNA 1: CACCCGUGCAAAAAUGCAGGGGUCUAAAACUGAGCGGAUAACCUCUCUAUGG
RNA 2: GGGAAUGGAUCCACAUCUACGAAUUCGUACCAAAGAGAGGUUAUCAGCUCACCGAGAUCGGAAGAGCACACGU
B9: target 1 insU 3' of 16,insC 3' of 16 (mixed)
RNA 1: CACCCGUGCAAAAAUGCAGGGGUCUAAAACUGAGCGGAUAACCUCUCUAUGG
RNA 2: GGGAAUGGAUCCACAUCUACGAAUUCGUACCAUAGAUCGAGGUUAUCCGCUCACCGAGAUCGGAAGAGCACACGU
B10: target 1 del7,del22 (mixed)
RNA 1: CACCCGUGCAAAAAUGCAGGGGUCUAAAACUGAGCGGAUAACCUCUCUAUGG
RNA 2: GGGAAUGGAUCCACAUCUACGAAUUCGUACAUAGAGAGGUUAUCGCUCACCGAGAUCGGAAGAGCACACGU
B11: target 1 C2G,C22A (mixed)
RNA 1: CACCCGUGCAAAAAUGCAGGGGUCUAAAACUGAGCGGAUAACCUCUCUAUGG
RNA 2: GGGAAUGGAUCCACAUCUACGAAUUCGUAACAUAGAGAGGUUAUCCGCUGACCGAGAUCGGAAGAGCACACGU
B12: target 1 insU 3' of 2,insG 3' of 2 (mixed)
RNA 1: CACCCGUGCAAAAAUGCAGGGGUCUAAAACUGAGCGGAUAACCUCUCUAUGG
RNA 2: GGGAAUGGAUCCACAUCUACGAAUUCGUACCAUAGAGAGGUUAUCCGCUCUGACCGAGAUCGGAAGAGCACACGU
B13: target 1 insC 3' of 22,insA 3' of 17 (mixed)
RNA 1: CACCCGUGCAAAAAUGCAGGGGUCUAAAACUGAGCGGAUAACCUCUCUAUGG
RNA 2: GGGAAUGGAUCCACAUCUACGAAUUCGUACCCAUAGAAGAGGUUAUCCGCUCACCGAGAUCGGAAGAGCACACGU
B14: target 1 C2A,G12U (mixed)
RNA 1: CACCCGUGCAAAAAUGCAGGGGUCUAAAACUGAGCGGAUAACCUCUCUAUGG
RNA 2: GGGAAUGGAUCCACAUCUACGAAUUCGUACCAUAGAGAGUUUAUCCGCUAACCGAGAUCGGAAGAGCACACGU
B15: target 1 insA 3' of 6,insC 3' of 5 (mixed)
RNA 1: CACCCGUGCAAAAAUGCAGGGGUCUAAAACUGAGCGGAUAACCUCUCUAUGG
RNA 2: GGGAAUGGAUCCACAUCUACGAAUUCGUACCAUAGAGAGGUUAUCCAGCCUCACCGAGAUCGGAAGAGCACACGU
B16: target 1 U8A,C21U (mixed)
RNA 1: CACCCGUGCAAAAAUGCAGGGGUCUAAAACUGAGCGGAUAACCUCUCUAUGG
RNA 2: GGGAAUGGAUCCACAUCUACGAAUUCGUACUAUAGAGAGGUUAACCGCUCACCGAGAUCGGAAGAGCACACGU
B17: target 1 insA 3' of 12,insA 3' of 7 (mixed)
RNA 1: CACCCGUGCAAAAAUGCAGGGGUCUAAAACUGAGCGGAUAACCUCUCUAUGG
RNA 2: GGGAAUGGAUCCACAUCUACGAAUUCGUACCAUAGAGAGGAUUAUCACGCUCACCGAGAUCGGAAGAGCACACGU
B18: target 1 A9U,G13A (mixed)
RNA 1: CACCCGUGCAAAAAUGCAGGGGUCUAAAACUGAGCGGAUAACCUCUCUAUGG
RNA 2: GGGAAUGGAUCCACAUCUACGAAUUCGUACCAUAGAGAAGUUUUCCGCUCACCGAGAUCGGAAGAGCACACGU
B19: target 1 insA 3' of 19,insU 3' of 5 (mixed)
RNA 1: CACCCGUGCAAAAAUGCAGGGGUCUAAAACUGAGCGGAUAACCUCUCUAUGG
RNA 2: GGGAAUGGAUCCACAUCUACGAAUUCGUACCAUAAGAGAGGUUAUCCGUCUCACCGAGAUCGGAAGAGCACACGU
B20: target 1 insA 3' of 8,insG 3' of 4 (mixed)
RNA 1: CACCCGUGCAAAAAUGCAGGGGUCUAAAACUGAGCGGAUAACCUCUCUAUGG
RNA 2: GGGAAUGGAUCCACAUCUACGAAUUCGUACCAUAGAGAGGUUAUACCGCGUCACCGAGAUCGGAAGAGCACACGU
B21: target 1 insG 3' of 16,insC 3' of 9 (mixed)
RNA 1: CACCCGUGCAAAAAUGCAGGGGUCUAAAACUGAGCGGAUAACCUCUCUAUGG
RNA 2: GGGAAUGGAUCCACAUCUACGAAUUCGUACCAUAGAGGAGGUUACUCCGCUCACCGAGAUCGGAAGAGCACACGU
B22: target 1 insU 3' of 22,insU 3' of 9 (mixed)
RNA 1: CACCCGUGCAAAAAUGCAGGGGUCUAAAACUGAGCGGAUAACCUCUCUAUGG
RNA 2: GGGAAUGGAUCCACAUCUACGAAUUCGUACUCAUAGAGAGGUUAUUCCGCUCACCGAGAUCGGAAGAGCACACGU
B23: target 1 insC 3' of 19,insC 3' of 18 (mixed)
RNA 1: CACCCGUGCAAAAAUGCAGGGGUCUAAAACUGAGCGGAUAACCUCUCUAUGG
RNA 2: GGGAAUGGAUCCACAUCUACGAAUUCGUACCAUCACGAGAGGUUAUCCGCUCACCGAGAUCGGAAGAGCACACGU
B24: target 1 insG 3' of 11,insC 3' of 8 (mixed)
RNA 1: CACCCGUGCAAAAAUGCAGGGGUCUAAAACUGAGCGGAUAACCUCUCUAUGG
RNA 2: GGGAAUGGAUCCACAUCUACGAAUUCGUACCAUAGAGAGGUGUAUCCCGCUCACCGAGAUCGGAAGAGCACACGU

What follows are binders tested against T1, EsCas13d, nuclease-dead (assay: crRNA (strand 1, pre-loaded); Mg2+; 40 mM Tris-HCl pH 7.5, 150 mM NaCl, 6 mM MgCl2, 1 mM DTT, 0.1% Tween-20, 0.2 mg/ml BSA; 25 C; 10 min per concentration, then washed). Conditions: tags: His6-TwinStrep-SUMO cleaved; N-terminal SNAP kept (SNAP-Surface 488); label: 3' end held by stalled T7 RNA polymerase.
In the case of B1, the Kd is reported as 72 ± 11 nM.
For B2, the Kd was 10.7 ± 0.6 nM.
B3 showed a Kd of 24.9 ± 2.8 nM.
Work on B4 yielded a Kd of 84 ± 9 nM.
B5 showed a Kd of 15.6 ± 1.8 nM.
B6 gave a Kd of 28 ± 1.4 nM.
B7 showed a Kd of 28.8 ± 1.4 nM.
B8 was tested, and the Kd was 29.8 ± 1.7 nM.
B9 showed a Kd of 47 ± 4 nM.
Work on B10 yielded a Kd of 22.6 ± 1.3 nM.
B11 was tested, and the Kd was 16.9 ± 1.8 nM.
In the case of B12, the Kd is reported as 8.6 ± 0.6 nM.
B13 gave a Kd of 33 ± 5 nM.
Binder B14 has a Kd of 9.2 ± 0.4 nM.
B15 was tested, and the Kd was 23.9 ± 1.9 nM.
B16 was tested, and the Kd was 9.1 ± 0.4 nM.
Binder B17 has a Kd of 25.9 ± 2.4 nM.
With B18 the Kd was 12.9 ± 0.9 nM.
With B19 the Kd was 41 ± 6 nM.
For B20, the Kd was 7.7 ± 0.5 nM.
B21 was tested, and the Kd was 23.4 ± 1.1 nM.
Binder B22 has a Kd of ~60 nM.
B23 was tested, and the Kd was 45.8 ± 3.4 nM.
B24 gave a Kd of 39 ± 6 nM.
